This is an account of results in doi:10.1101/2023.12.12.571160.

The target of assay [1] is prefusion-stabilized PRD-0038 S2 subunit trimer (PRD-0038 (clade 3 sarbecovirus)). Briefly: negative-stain EM.
Assay [2] addresses prefusion-stabilized SARS-CoV-1 S2 subunit trimer (SARS-CoV-1). Briefly: negative-stain EM.

For orientation: stoichiometry N means the number of molecules, sites or subunits per partner or assembly.

Regarding “prefusion-stabilized PRD-0038 S2 subunit trimer (domain or fragment)”, in assay [1], the stoichiometry N is 3. As for “prefusion-stabilized SARS-CoV-1 S2 subunit trimer (domain or fragment)”, the stoichiometry N in assay [2] was found to be 3.
